Test results published in patent US20200270125A1 (OMEROS, published 2020).

T1: human MASP-1 (construct not stated) (human, UniProt P48740 20-699, limits assumed)
T1 sequence: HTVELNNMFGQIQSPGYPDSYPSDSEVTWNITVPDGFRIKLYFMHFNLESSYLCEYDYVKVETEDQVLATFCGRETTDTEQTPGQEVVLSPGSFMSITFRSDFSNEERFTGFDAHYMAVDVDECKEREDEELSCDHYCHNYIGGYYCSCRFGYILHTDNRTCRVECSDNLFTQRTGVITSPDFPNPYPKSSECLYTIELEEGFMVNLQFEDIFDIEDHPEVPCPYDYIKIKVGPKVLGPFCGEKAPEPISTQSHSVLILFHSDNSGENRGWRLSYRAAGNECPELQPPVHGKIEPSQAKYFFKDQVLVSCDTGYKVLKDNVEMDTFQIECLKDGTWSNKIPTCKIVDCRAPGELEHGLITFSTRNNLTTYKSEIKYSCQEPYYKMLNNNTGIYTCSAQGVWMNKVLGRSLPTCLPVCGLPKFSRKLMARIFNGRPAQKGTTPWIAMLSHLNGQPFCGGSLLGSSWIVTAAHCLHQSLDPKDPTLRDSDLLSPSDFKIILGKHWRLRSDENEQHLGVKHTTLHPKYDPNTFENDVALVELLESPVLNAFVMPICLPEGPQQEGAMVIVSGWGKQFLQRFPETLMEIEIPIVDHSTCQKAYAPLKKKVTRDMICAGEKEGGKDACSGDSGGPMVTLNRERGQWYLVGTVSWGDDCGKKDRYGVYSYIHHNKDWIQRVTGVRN

T2: human MASP-3 (construct not stated) (human)
T2 chain: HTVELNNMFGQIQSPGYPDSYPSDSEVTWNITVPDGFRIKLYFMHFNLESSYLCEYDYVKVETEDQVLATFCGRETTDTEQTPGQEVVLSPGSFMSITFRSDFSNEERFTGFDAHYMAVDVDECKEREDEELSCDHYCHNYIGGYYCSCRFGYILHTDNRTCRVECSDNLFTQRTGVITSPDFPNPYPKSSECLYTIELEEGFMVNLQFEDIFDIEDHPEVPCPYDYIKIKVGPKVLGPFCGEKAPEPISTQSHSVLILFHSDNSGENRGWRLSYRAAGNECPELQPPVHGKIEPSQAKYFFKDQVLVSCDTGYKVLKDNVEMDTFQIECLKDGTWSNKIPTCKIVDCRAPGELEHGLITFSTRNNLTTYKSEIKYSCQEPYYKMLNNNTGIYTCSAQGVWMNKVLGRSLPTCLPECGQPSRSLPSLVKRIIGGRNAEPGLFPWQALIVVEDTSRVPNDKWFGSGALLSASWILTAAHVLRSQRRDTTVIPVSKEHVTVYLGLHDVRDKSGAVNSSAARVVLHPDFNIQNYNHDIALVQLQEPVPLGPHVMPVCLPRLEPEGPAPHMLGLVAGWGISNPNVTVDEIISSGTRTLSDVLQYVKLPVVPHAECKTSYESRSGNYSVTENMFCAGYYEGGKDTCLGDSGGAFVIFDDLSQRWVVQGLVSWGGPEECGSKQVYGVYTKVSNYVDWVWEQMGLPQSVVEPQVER

T3: human MASP-3 CCP1-CCP2-SP fragment (human)
T3 chain: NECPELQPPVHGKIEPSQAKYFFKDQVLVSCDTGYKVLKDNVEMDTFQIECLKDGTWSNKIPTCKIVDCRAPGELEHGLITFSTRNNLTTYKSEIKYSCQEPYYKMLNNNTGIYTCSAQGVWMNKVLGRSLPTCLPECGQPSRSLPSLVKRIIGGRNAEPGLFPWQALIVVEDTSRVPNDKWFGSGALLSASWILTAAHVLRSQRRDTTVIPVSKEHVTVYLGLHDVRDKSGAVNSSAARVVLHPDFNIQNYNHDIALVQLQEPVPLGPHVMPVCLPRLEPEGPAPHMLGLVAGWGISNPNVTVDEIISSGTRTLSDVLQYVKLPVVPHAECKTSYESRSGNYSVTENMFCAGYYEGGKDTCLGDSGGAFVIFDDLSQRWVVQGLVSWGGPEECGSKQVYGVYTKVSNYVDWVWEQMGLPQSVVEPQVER

T4: recombinant human MASP-1A (S646A, CCP1-CCP2-SP fragment) (human, UniProt P48740 298-699, limits assumed)
T4 chain: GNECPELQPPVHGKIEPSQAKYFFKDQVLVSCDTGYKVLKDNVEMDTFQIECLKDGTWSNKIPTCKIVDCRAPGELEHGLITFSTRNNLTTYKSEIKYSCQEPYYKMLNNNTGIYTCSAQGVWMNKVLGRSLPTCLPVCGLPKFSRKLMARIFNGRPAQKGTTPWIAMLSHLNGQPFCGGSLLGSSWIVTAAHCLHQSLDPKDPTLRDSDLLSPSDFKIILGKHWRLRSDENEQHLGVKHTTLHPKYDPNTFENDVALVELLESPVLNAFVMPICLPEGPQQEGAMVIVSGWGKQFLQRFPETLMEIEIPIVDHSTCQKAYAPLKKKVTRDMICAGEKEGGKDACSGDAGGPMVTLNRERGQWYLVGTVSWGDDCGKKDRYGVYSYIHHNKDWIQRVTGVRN

T5: recombinant full-length mouse MASP-3 (mouse)
T5 construct: Entry is with leader; also called mouse full length MASP-3
T5 chain: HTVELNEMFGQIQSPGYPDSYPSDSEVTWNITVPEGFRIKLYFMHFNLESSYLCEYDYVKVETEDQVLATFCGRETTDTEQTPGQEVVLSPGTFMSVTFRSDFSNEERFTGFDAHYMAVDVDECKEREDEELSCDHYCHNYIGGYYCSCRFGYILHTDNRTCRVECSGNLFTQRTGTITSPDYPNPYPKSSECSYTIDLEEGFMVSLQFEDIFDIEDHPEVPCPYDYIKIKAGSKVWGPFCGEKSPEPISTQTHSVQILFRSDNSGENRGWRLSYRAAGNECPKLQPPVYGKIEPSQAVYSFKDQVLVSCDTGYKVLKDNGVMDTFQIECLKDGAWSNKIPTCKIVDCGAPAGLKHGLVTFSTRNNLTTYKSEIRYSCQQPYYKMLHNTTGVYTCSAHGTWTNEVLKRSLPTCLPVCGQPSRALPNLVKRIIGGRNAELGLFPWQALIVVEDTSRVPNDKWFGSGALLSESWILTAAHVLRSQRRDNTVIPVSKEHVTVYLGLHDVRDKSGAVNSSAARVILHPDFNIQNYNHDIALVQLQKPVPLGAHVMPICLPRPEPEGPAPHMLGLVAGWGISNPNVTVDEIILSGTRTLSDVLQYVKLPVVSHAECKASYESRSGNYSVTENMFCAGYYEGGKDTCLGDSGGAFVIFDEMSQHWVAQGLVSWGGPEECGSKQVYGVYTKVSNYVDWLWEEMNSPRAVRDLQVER


Columns and labels:
[1] = molecular target: T1, human MASP-1 (construct not stated); experiment: DTLacO screen
[2] = molecular target: T2, human MASP-3 (construct not stated); experiment: cell-based or functional assay
[3] = molecular target: T3, human MASP-3 CCP1-CCP2-SP fragment; experiment: cell-based or functional assay
[4] = molecular target: T4, recombinant human MASP-1A (S646A, …); experiment: ELISA: recombinant MASP-1A (S646A, CCP1-CCP2-SP) coated directly on the plate, A450
Method: (§1) The plate was then washed (PBS-T, 0.05%) and the candidate MASP-3 antibodies were added followed by incubation for one hour at room temperature. The plate was washed (PBS-T, 0.05%) and a detection antibody was added (mouse anti-human kappa-HRP, SouthernBiotech #9230-05) for one hour at room temperature. After another wash (PBS-T, 0.05%) the plate was developed (5 minutes) with OPT EIA TMB (BD Biosciences #555214). Absorbance reading at A450 was measured using the Spectramax M5e plate reader.

[5] = molecular target: T6, recombinant human MASP-2 (CCP1-CCP2-SP fragment) (human, UniProt O00187 298-686, limits assumed); experiment: ELISA: recombinant MASP-2 (CCP1-CCP2-SP) coated directly on the plate, A450
T6 construct: domain: CCP1-CCP2-SP fragment
T6 sequence (O00187 298-686 limits assumed): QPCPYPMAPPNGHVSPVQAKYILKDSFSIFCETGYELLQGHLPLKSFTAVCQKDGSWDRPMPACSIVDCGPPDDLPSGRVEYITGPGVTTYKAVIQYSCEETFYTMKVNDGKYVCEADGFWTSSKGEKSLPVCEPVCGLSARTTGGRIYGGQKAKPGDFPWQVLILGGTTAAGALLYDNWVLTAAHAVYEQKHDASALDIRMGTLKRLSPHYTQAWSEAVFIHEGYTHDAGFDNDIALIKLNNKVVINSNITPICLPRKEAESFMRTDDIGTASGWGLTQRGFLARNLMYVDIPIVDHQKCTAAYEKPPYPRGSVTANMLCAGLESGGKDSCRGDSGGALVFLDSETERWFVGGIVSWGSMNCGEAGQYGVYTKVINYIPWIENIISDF
Method: as §1

[6] = molecular target: T5, recombinant full-length mouse MASP-3; experiment: sandwich ELISA, full-length mouse MASP-3 captured by αM3-259
Method: as §1

[7] = molecular target: T3, human MASP-3 CCP1-CCP2-SP fragment; experiment: sandwich ELISA, MASP-3 CCP1-CCP2-SP captured by αM3-259
Method: as §1

[8] = molecular target: T3, human MASP-3 CCP1-CCP2-SP fragment; experiment: sandwich ELISA: human MASP-3 CCP1-CCP2-SP captured on aM3-259, mAb detected with anti-human kappa-HRP, A450
Method: as §1

[9] = molecular target: T2, human MASP-3 (construct not stated); experiment: not described at this place
[10] = molecular target: T2, human MASP-3 (construct not stated); experiment: cross-species binding experiments
[11] = molecular target: T2, human MASP-3 (construct not stated); experiment: ELISA, monovalent Fab
[12] = molecular target: T2, human MASP-3 (construct not stated); experiment: cell-based or functional assay

Row | Binder | binding result [1] | Inhibition of Factor Bb Deposition on Zymosan (IC50 nM), 10% factor D-depleted human serum with pro-factor D [2] | inhibition of MASP-3-dependent fluorogenic tripeptide (BOC-V-P-R-AMC) cleavage [3] | EC50 [6] | EC50 [7] | EC50 [8] | binding affinity [9] | avidity [10] | EC50 [11] | binding result [4] | binding result [5] | further results
1 | 10D12 Parental Fab (Fab, V domains shown, Monovalent Fab; also called 10D12 Fab) VH: QIQLVQSGPELKKPGETVKISCKASGYIFTSYGMSWVRQAPGKGLKWMGWINTYSGVPTYADDFKGRFAFSLETSARTPYLQINNLKNEDTATYFCARGGEAMDYWGQGTSVTVSS VL: not shown |  |  |  |  |  |  |  | < 500 pM | 0.108 nM |  |  | 
2 | MASP-3 mAb 4D5 (mouse-human chimeric IgG4) (antibody, V domains shown) VH: QVQLKQSGPELVKPGASVKLSCKASGYTFTTDDINWVKQRPGQGLEWIGWIYPRDDRTKYNDKFKDKATLTVDTSSNTAYMDLHSLTSEDSAVYFCSSLEDTYWGQGTLVAVSS VL: DIVMTQSPSSLAVSAGEKVTMTCKSSQSLLNSRTRKNYLAWYQQKPGQSPKLLIYWASTRESGVPDRFTGSGSGTDFSLTISSVQAEDLAVYYCKQSYNLYTFGGGTKLEIKR |  | 0.4 nM | 27.5 nM | 0.098 nM | 0.058 nM | 0.113 nM | ≤ 500 pM |  |  | no binding (tested: about 20 nM (log10 about 1.3)) | no binding (tested: about 20 nM (log10 about 1.3)) | Inhibition of Rabbit Erythrocyte Lysis (IC50 nM), 10% factor D-depleted human serum [12]: 0.1 nM
3 | 4D5 Parental Fab (Fab, V domains shown, Monovalent Fab; also called 4D5 Fab) VH: QVQLKQSGPELVKPGASVKLSCKASGYTFTTDDINWVKQRPGQGLEWIGWIYPRDDRTKYNDKFKDKATLTVDTSSNTAYMDLHSLTSEDSAVYFCSSLEDTYWGQGTLVAVSS VL: DIVMTQSPSSLAVSAGEKVTMTCKSSQSLLNSRTRKNYLAWYQQKPGQSPKLLIYWASTRESGVPDRFTGSGSGTDFSLTISSVQAEDLAVYYCKQSYNLYTFGGGTKLEIKR |  |  |  |  |  |  |  | < 500 pM | 0.107 nM |  |  | 

Now from value to binder, other results behind:

Row | binding result [1] | Inhibition of Factor Bb Deposition on Zymosan (IC50 nM), 10% factor D-depleted human serum with pro-factor D [2] | inhibition of MASP-3-dependent fluorogenic tripeptide (BOC-V-P-R-AMC) cleavage [3] | EC50 [6] | EC50 [7] | EC50 [8] | binding affinity [9] | avidity [10] | EC50 [11] | Binder | binding result [4] | binding result [5] | further results
4 | binds |  |  |  |  |  |  |  |  | MASP-3 clone D14 (antibody, human IgG1, V domains shown, Chicken V regions from the DTLacO platform; also called mAbD14; mAb D14) VH: AVTLDESGGGLQTPGGALSLVCKASGFTFSSYAMHWVRQAPGKGLEWVAGIYKSGAGTNYAPAVKGRATISRDNGQSTVRLQLNNLRAEDTGTYYCAKTTGSGCSSGYRAEYIDAWGHGTEVIVSS VL: ALTQPASVSANPGETVKITCSGGGSYAGSYYYGWYQQKAPGSAPVTLIYYNNKRPSDIPSRFSGSLSGSTNTLTITGVRADDEAVYFCGSADNSGAAFGAGTTLTVL |  |  | 
5 | binds |  |  |  |  |  |  |  |  | MASP-1 clone 1E10 (antibody, human IgG1, V domains shown, Chicken V regions from the DTLacO platform; also called mAb 1E10; mAb1E10) VH: AVTLDESGGGLQTPGGALSLVCKASGFTFSSYDMVWVRQAPGKGLEFVAGISRNDGRYTEYGSAVKGRATISRDNGQSTVRLQLNNLRAEDTATYYCARDAGGSAYWFDAGQIDAWGHGTEVIVSS VL: ALTQPASVSANPGETVKITCSGGGSYAGSYYYGWYQQKAPGSAPVTLIYYNNKRPSDIPSRFSGSLSGSTNTLTITGVRADDEAVYFCGSADNSGAAFGAGTTLTVL |  |  | 
6 |  | 0.5 nM | 30.9 nM | 0.081 nM | 0.089 nM | 0.023 nM | ≤ 500 pM |  |  | MASP-3 mAb 10D12 (mouse-human chimeric IgG4) (antibody, V domains shown) VH: QIQLVQSGPELKKPGETVKISCKASGYIFTSYGMSWVRQAPGKGLKWMGWINTYSGVPTYADDFKGRFAFSLETSARTPYLQINNLKNEDTATYFCARGGEAMDYWGQGTSVTVSS VL: not shown | no binding (tested: about 20 nM (log10 about 1.3)) | no binding (tested: about 20 nM (log10 about 1.3)) | 
